Source: patent US10087225B2, “Formulation of MK2 inhibitor peptides” (MOERAE MATRIX, INC., priority 2015, dated 2018)

What was measured:
Assay in all cases: Kinase Profiling Assay
Type in all cases: biochemical
Conditions in all cases: for % activity: 100 μM
EphA5(h) = EphA5(h) (Homo sapiens, UniProt P54756)
NEK3(h) = target: T1, NEK3(h) (Homo sapiens, UniProt P51956)
T1 sequence (P51956 1-506): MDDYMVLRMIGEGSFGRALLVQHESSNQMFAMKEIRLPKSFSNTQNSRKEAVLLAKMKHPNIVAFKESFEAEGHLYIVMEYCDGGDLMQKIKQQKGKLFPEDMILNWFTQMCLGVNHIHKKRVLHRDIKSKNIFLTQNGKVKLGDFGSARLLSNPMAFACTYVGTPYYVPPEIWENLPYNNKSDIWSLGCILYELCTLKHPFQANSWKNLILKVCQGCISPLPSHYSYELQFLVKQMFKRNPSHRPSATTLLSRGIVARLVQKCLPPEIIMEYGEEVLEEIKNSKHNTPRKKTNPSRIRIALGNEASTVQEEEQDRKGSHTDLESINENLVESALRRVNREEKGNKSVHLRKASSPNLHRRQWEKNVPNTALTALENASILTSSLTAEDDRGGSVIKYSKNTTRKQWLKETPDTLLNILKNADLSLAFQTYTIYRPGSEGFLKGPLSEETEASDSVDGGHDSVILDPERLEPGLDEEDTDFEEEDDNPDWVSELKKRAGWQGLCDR

Tie2(h) = Tie2(h) (Homo sapiens, UniProt Q02763)
ZIPK(h) = ZIPK(h) (Homo sapiens, UniProt O43293)
Fms(h) = Fms(h) (Homo sapiens, UniProt P07333)
EphA7(h) = EphA7(h) (Homo sapiens, UniProt Q15375)
ULK3(h) = target: T2, ULK3(h) (Homo sapiens, UniProt Q6PHR2)
T2 sequence (Q6PHR2 1-472): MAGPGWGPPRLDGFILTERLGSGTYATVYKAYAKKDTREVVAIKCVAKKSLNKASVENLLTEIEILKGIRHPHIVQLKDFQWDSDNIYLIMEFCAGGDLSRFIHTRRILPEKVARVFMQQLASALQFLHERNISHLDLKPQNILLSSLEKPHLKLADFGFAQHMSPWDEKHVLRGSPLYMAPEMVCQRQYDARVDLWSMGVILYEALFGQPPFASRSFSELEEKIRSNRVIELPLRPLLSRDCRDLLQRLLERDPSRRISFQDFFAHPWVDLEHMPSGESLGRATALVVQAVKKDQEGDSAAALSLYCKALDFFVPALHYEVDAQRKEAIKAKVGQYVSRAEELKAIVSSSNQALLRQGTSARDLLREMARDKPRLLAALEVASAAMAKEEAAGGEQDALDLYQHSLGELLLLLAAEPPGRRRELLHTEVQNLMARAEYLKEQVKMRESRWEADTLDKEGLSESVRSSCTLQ

IRR(h) = IRR(h) (Homo sapiens, UniProt P14616)
PKCδ(h) = PKCδ(h) (Homo sapiens, UniProt Q05655)
FGFR1(h) = FGFR1(h) (Homo sapiens, UniProt P11362)
PKCτ(h) = target: T3, PKCτ(h) (Homo sapiens, UniProt P41743)
T3 sequence (P41743 1-596): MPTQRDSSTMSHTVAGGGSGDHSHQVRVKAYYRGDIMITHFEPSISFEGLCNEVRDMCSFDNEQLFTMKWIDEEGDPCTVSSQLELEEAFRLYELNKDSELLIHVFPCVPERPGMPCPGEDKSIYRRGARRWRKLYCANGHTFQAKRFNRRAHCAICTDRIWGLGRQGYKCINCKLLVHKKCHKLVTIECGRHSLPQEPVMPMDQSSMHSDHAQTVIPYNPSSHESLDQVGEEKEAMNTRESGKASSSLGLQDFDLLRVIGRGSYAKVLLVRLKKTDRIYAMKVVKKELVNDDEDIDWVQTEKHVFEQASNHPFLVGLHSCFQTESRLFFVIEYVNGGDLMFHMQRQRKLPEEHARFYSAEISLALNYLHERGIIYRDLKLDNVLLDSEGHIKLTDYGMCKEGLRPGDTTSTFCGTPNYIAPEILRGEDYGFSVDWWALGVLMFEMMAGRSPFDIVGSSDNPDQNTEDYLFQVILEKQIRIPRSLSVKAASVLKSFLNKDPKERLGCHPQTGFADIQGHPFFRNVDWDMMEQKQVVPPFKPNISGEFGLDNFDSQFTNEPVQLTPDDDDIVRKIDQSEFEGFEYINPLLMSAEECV

CK2(h) = CK2(h) (Homo sapiens, UniProt P68400)
Itk(h) = target: T4, Itk(h) (Homo sapiens, UniProt Q08881)
T4 sequence (Q08881 1-620): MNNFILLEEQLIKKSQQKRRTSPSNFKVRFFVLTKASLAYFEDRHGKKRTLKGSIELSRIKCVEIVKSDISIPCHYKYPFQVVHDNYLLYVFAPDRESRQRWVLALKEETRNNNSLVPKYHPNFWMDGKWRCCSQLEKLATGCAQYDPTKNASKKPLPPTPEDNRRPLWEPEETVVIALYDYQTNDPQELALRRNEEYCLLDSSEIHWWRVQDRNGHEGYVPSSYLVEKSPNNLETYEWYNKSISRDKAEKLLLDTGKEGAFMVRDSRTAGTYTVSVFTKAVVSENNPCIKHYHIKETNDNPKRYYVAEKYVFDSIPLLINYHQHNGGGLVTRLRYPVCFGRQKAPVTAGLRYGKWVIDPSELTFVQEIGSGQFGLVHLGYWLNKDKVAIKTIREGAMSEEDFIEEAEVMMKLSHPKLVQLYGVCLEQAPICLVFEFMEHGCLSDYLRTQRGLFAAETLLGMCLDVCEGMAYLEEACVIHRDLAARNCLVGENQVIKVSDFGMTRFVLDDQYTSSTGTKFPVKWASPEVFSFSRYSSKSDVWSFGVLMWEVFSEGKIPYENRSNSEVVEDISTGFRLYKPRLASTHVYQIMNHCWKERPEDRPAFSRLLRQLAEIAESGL

Chain of PKCδ(h) (Q05655 whole entry): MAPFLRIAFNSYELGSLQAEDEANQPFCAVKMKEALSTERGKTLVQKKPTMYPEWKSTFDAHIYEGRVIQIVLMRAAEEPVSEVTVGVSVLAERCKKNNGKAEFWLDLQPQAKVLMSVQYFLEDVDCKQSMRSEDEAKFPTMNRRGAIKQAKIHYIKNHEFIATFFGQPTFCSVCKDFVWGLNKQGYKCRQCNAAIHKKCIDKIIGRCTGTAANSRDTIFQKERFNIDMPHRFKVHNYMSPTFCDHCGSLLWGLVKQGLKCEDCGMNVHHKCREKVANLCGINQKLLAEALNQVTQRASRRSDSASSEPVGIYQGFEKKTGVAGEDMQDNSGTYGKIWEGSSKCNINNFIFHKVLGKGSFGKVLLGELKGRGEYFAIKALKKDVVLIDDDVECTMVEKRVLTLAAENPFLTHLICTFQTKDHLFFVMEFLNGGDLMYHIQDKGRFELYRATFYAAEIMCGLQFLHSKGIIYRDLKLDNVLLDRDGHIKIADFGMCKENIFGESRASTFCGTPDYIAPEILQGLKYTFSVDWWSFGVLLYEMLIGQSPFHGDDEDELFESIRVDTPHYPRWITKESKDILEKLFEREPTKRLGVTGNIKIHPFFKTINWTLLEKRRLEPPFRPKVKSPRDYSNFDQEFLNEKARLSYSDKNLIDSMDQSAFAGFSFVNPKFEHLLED
Chain of ZIPK(h) (O43293 whole entry): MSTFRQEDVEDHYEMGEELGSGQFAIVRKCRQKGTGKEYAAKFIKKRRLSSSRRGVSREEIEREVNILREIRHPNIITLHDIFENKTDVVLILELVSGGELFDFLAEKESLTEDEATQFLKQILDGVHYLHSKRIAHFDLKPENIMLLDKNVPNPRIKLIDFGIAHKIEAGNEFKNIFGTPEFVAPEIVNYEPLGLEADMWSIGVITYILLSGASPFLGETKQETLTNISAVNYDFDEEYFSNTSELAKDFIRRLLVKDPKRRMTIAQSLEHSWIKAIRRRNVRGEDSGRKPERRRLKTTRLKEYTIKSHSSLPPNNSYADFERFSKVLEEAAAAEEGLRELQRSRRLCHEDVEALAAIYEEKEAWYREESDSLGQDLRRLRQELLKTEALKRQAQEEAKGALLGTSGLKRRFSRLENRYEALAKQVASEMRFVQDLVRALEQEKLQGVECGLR
Chain of CK2(h) (P68400 whole entry): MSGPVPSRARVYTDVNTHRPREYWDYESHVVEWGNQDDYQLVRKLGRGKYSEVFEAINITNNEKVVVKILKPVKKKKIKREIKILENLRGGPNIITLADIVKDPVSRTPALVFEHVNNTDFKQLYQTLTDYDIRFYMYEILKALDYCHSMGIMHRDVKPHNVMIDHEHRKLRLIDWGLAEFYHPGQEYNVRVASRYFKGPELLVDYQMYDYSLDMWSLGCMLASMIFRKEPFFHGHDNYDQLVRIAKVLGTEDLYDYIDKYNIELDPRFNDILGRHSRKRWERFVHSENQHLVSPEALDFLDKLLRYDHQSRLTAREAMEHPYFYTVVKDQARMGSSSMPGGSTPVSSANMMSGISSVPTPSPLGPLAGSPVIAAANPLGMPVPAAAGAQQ
Chain of CK2(h) (P67870 whole entry partner): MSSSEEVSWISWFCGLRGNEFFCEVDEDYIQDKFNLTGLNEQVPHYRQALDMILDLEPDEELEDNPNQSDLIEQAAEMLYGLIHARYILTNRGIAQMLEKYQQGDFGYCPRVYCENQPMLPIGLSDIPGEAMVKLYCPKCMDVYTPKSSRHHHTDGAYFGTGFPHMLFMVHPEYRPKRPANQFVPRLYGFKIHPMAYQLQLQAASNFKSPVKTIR
Chain of EphA7(h) (Q15375 28-998): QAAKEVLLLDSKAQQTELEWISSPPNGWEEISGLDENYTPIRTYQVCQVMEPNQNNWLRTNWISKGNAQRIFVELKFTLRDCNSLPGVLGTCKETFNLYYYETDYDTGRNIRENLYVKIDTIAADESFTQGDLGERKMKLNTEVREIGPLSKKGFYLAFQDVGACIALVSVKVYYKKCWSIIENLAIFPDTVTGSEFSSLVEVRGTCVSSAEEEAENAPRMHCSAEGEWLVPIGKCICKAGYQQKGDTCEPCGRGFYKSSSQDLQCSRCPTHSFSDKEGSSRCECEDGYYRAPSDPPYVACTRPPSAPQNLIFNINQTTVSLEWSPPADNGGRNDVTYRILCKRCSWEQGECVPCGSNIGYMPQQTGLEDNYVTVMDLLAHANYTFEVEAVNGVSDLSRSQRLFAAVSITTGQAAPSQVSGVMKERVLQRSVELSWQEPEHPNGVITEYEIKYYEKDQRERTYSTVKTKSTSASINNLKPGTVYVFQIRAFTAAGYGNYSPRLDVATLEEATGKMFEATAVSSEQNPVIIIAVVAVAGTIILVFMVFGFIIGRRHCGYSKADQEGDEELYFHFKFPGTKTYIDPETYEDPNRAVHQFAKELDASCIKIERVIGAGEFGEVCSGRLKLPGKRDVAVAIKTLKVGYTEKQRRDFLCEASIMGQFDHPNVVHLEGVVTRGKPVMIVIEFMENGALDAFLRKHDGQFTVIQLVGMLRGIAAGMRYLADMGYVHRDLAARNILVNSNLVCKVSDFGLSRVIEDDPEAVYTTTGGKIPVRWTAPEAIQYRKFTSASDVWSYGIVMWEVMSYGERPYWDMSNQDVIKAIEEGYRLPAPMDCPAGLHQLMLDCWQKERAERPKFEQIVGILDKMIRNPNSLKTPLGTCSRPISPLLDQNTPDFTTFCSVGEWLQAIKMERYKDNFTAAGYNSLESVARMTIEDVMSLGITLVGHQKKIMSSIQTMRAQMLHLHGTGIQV
Chain of IRR(h) (P14616 27-1297): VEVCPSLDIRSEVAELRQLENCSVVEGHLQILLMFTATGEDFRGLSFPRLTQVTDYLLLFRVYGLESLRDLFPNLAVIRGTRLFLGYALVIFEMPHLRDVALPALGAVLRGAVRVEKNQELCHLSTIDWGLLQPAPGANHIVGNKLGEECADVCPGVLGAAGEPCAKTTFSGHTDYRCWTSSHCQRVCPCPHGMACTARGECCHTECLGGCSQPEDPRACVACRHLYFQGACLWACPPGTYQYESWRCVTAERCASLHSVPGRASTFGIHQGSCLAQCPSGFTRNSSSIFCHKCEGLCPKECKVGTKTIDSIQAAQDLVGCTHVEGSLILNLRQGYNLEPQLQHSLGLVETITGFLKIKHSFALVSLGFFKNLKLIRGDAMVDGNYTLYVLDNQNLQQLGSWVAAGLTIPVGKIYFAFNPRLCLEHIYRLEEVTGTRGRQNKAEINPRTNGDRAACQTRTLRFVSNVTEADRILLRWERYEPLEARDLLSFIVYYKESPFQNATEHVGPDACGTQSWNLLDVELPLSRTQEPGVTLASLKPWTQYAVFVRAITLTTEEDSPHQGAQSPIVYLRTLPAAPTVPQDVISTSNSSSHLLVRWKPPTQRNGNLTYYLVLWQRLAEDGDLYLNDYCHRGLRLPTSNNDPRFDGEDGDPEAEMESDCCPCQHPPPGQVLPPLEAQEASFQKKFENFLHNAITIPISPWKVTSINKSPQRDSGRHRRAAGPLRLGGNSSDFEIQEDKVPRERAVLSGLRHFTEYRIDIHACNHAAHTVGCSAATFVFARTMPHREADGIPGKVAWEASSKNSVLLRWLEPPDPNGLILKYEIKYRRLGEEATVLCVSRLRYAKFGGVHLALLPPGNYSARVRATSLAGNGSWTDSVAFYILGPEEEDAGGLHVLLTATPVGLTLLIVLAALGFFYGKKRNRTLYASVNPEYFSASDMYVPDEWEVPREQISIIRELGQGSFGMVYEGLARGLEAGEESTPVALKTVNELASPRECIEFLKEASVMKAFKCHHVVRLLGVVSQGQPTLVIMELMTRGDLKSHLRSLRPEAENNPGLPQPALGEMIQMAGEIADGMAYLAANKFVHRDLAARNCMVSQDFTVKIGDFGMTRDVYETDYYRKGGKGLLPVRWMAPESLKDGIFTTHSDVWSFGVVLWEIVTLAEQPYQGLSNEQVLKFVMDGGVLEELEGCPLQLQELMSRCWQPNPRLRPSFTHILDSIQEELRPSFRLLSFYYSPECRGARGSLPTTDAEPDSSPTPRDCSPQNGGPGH
Chain of FGFR1(h) (P11362 22-822): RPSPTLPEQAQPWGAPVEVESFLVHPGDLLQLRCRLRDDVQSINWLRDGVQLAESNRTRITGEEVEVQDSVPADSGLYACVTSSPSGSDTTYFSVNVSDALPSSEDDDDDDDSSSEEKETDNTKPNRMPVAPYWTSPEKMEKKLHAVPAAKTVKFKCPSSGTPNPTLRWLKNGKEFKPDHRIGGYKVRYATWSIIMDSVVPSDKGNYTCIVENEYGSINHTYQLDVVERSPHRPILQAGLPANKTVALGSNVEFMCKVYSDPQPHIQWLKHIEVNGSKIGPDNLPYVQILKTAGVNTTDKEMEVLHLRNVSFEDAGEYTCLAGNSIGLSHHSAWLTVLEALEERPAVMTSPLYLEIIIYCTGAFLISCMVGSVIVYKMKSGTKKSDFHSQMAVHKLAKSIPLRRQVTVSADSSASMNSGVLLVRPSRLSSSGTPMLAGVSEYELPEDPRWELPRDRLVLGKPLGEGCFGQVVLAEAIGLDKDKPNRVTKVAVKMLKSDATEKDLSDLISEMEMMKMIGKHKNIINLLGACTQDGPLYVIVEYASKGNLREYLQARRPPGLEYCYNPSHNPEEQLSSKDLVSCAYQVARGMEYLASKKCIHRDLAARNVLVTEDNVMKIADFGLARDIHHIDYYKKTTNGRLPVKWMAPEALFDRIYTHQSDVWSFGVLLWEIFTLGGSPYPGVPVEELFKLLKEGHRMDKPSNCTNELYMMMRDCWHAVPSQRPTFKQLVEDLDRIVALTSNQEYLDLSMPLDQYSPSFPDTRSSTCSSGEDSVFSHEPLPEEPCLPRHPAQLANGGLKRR

Substance	% activity (EphA5(h))	% activity (NEK3(h))	% activity (Tie2(h))	% activity (ZIPK(h))	% activity (Fms(h))	% activity (EphA7(h))	% activity (ULK3(h))	% activity (IRR(h))	% activity (PKCδ(h))	% activity (FGFR1(h))	% activity (PKCτ(h))	% activity (CK2(h))	% activity (Itk(h))	also measured
H-YARAAARQARAKALARQLGVAA-OH [MMI-0100]	–	–	–	–	–	–	–	–	–	–	–	–	–	activity at 100 µM (EphA5(h)): 110%; activity at 100 µM (NEK3(h)): 100%; activity at 100 µM (Tie2(h)): 28%; activity at 100 µM (ZIPK(h)): 80%; activity at 100 µM (Fms(h)): 89%; activity at 100 µM (EphA7(h)): 193%; activity at 100 µM (ULK3(h)): 142%; activity at 100 µM (IRR(h)): 85%; activity at 100 µM (PKCδ(h)): 100%; activity at 100 µM (FGFR1(h)): 120%; activity at 100 µM (PKCτ(h)): 110%; activity at 100 µM (CK2(h)): 90%; activity at 100 µM (Itk(h)): 99%
HRRIKAWLKKIKALARQLGVAA (Mammalian) [MMI-0500]	42%	20%	22%	1%	14%	189%	177%	10%	61%	18%	7%	93%	7%	–
YARAAARQARAKALNRQLGVA (Mammalian) [MMI-0200]	123%	100%	53%	67%	92%	220%	164%	69%	101%	97%	97%	83%	98%	–
